In data set [1] the target is Premixed complex of TnT1 and Tpm WT 134–284 (human) (UniProt P09493). The data set can be described thus: ITC; MicroCal PEAQ-ITC, 25 °C; 30 mM HEPES-Na pH 7.3, 100 mM NaCl, 1 mM DTT; sample in the cell 30 to 60 µM, ligand in the syringe 200 to 700 µM; one set of binding sites.
The test system of data set [2] is P09493. As to the kind of experiment: viscosity measurement; falling ball microviscometer, 20 °C; Tpm 1.0 mg/mL (15 µM) with TnT1 at molar ratio 1/1; 30 mM HEPES-Na pH 7.3, 100 mM NaCl, 4 mM DTT; excess viscosity over buffer. Conditions: other: viscosity measurement.
Data set [3] concerns P09493. The data set can be described thus: viscosity measurement; falling ball microviscometer, 20 °C; Tpm 1.0 mg/mL (15 µM), without TnT1; 30 mM HEPES-Na pH 7.3, 100 mM NaCl, 4 mM DTT; excess viscosity over buffer as read-out of the end-to-end overlap junction of Tpm dimers. Particulars: other: viscosity measurement.
Data set [4] deals with Tropomyosin C-terminal fragment Tpm WT 134–284 (human) (UniProt P09493). As to the kind of experiment: ITC; MicroCal PEAQ-ITC, 25 °C; 30 mM HEPES-Na pH 7.3, 100 mM NaCl, 1 mM DTT; sample in the cell 30 to 60 µM, ligand in the syringe 200 to 700 µM; one set of binding sites.
For data set [5], the target named is Human Tpm1.1 (α-Tpm) M281T (human) (UniProt P09493). The description is as above.
Data set [6] concerns the target Human Tpm1.1 (α-Tpm) M8R (human) (UniProt P09493). The description is as above.
For data set [7], the target named is Human Tpm1.1 (α-Tpm) I284V (human) (UniProt P09493). The description is as above.
Data set [8] concerns the target Human Tpm1.1 (α-Tpm) K15N (human) (UniProt P09493). The description is as above.
Data set [9] concerns the target Premixed complex of Tpm WT 1–133 and Tpm WT 134–284 (human) (UniProt P09493). The description is as above.
For data set [10], the target named is Human Tpm1.1 (α-Tpm) A277V (human) (UniProt P09493). Described as above.
The target in data set [11] is Human Tpm1.1 (α-Tpm) WT (human) (UniProt P09493). The data set is described as above.
Sequence of Human Tpm1.1 (α-Tpm) WT (human) (P09493 other isoform, or with tags, fused parts or gaps): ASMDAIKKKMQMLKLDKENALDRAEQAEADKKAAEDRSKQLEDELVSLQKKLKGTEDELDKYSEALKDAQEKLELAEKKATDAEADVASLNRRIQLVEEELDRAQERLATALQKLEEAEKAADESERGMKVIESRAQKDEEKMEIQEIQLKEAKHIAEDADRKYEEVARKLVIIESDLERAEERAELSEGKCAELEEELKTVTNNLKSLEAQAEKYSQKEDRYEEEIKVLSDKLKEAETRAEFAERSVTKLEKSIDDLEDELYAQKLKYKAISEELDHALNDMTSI

Sequence of Human Tpm1.1 (α-Tpm) A277V (human) (P09493 other isoform, or with tags, fused parts or gaps A277V | A277V): as the sequence (P09493 other isoform, or with tags, fused parts or gaps) above, with A279V counted along it
Sequence of Tropomyosin C-terminal fragment Tpm WT 134–284 (human) (P09493 134-284): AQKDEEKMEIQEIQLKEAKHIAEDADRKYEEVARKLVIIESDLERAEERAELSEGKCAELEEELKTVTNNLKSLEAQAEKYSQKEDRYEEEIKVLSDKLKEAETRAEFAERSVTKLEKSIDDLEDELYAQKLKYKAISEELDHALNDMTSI
Sequence of Premixed complex of Tpm WT 1–133 and Tpm WT 134–284 (human) (P09493 other isoform, or with tags, fused parts or gaps, chain 1 of 2): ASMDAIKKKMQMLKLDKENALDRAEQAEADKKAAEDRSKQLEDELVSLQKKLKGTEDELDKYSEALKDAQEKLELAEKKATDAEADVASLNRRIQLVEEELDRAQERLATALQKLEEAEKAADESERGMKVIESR
Sequence of Premixed complex of Tpm WT 1–133 and Tpm WT 134–284 (human) (P09493 134-284, chain 2 of 2): as the sequence (P09493 134-284) above
Sequence of Human Tpm1.1 (α-Tpm) I284V (human) (P09493 other isoform, or with tags, fused parts or gaps I284V | I284V): as the sequence (P09493 other isoform, or with tags, fused parts or gaps) above, with I286V counted along it
Sequence of Human Tpm1.1 (α-Tpm) M8R (human) (P09493 other isoform, or with tags, fused parts or gaps M8R): as the sequence (P09493 other isoform, or with tags, fused parts or gaps) above, with M10R counted along it
Sequence of Human Tpm1.1 (α-Tpm) M281T (human) (P09493 other isoform, or with tags, fused parts or gaps M281T | M281T): as the sequence (P09493 other isoform, or with tags, fused parts or gaps) above, with M283T counted along it
Sequence of Human Tpm1.1 (α-Tpm) K15N (human) (P09493 other isoform, or with tags, fused parts or gaps K15N | K15N): as the sequence (P09493 other isoform, or with tags, fused parts or gaps) above, with K17N counted along it

In data set [1], “Tropomyosin N-terminal fragment Tpm WT 1–133 (from UniProt P09493 1-133) (domain or fragment)” had a Kd of 1.7 µM, a dH of -6.5 kcal/mol and a stoichiometry N of 1.07.
On to Human Tpm1.1 (α-Tpm) WT, for which the excess viscosity with P09493 [2] came to 0.992 ± 0.001 mPa·s; in the data set on P09493 [3], 0.125 mPa·s.
Consider “Human adult cardiac troponin T fragment TnT1 (TnT1–158) (domain or fragment)”, for which the Kd in data set [4] is 1.9 µM; in data set [5], 1.52 µM; in data set [6], 1.9 µM; in data set [7], 1.89 µM; in data set [8] it was 1.3 µM; in [9] it was 0.9 µM. Also, the values for the Kd in data set [10] and in data set [11] were 2.51 µM and 0.91 µM, respectively. Further, the dH in data set [4] is 2.1 kcal/mol; in data set [5] it was -8.83 kcal/mol; in [6], 2.51 kcal/mol; in [7], -14.4 kcal/mol; in [8] it was -12.1 kcal/mol; in [9], -7.7 kcal/mol. Moreover, the dH is -10.6 kcal/mol in data set [10] and -9.69 kcal/mol in data set [11]. Moreover, the stoichiometry N in data set [4] is 1.06; in data set [5], 0.857; in data set [6] it was 1.15; in data set [7], 0.775; in [8], 1.05; in [9], 0.69. The stoichiometry N was found to be 1.03 in data set [10] and 0.629 in [11].

(Values after article PMC9779223.)
